This sample holds only a part of the variants without activity.

B1: TPR 5TU (parent)
chain: GGAUCUUCUCGAUCUAACAAAAAAGACAAAUCUGCCACAAAGCUUGAGAGCAUCUUCGGAUGCAGAGGCGGCAGCCUUCGGUGGCGCGAUAGCGCCAACGUUCUCAACUAUGACACGCAAAACGCGUGCUCCGUUGAAUGGAGUUUAUCAUG

In this series the parent is B1. Briefly: polymerase ribozyme fitness, log enrichment relative to wild type (log ratio); higher = more active; in vitro selection for triplet polymerase activity. A digest of the protocol: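 Mutant libraries for each subunit of a heterodimeric triplet polymerase ribozyme were made by PCR and then transcribed. Each library underwent one round of in vitro selection in triplicate: annealing with a biotinylated primer, the partner subunit and triplets, frozen incubation at −7 °C, gel excision of extended constructs, streptavidin-bead capture and RT-PCR. Input and output libraries were Illumina-sequenced, and only genotypes with ≥10 input reads and ≥1 read per output were kept. Fitness is the logarithm, base 2, of genotype enrichment over wild-type enrichment, computed from inverse-variance-weighted replicate averages.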
In the case of C93G A107U, the “polymerase ribozyme fitness (log ratio)” value was -4.14. Next, G94A A106C G136A: -0.404; G92A G126U: -2.26. Next, A91G U130G A150G: at most -4.2.

Take C93U A98G C103A: the “polymerase ribozyme fitness (log ratio)” value was -2.73. Next, A89G U139G: -0.875; G94A U101C G136C A137G U151A: at most -4.2; A91U U127G: at most -4.2. Next, C87A U127G: at most -4.2; C93U C99G G136A U145G: -1.59; G92U G133C: -2.1. Next, A91U C118G G141C: -3.94; G88U G126A: -2.98; A91G C118G G143C: at most -4.2. Turning to A89G A97G A113U C118A A120C G141C, the “polymerase ribozyme fitness (log ratio)” value was at most -4.2.

As to C93U G141A, the “polymerase ribozyme fitness (log ratio)” value is -1.7. Consider C93A C118G, for which the “polymerase ribozyme fitness (log ratio)” value is -3.44. Next, C93A C118U: -3.29; G94C G100C C131U G133C C149G: at most -4.2; G92U A121G G143C U145G: -3.44. As for C87G C93A, the “polymerase ribozyme fitness (log ratio)” value is -3.63. Next, G94C G124U G143U: -3.6; C93U C99U C114G: -3.73. Next, G94A A97U C125G: -2.14; G92A G124A: -2.65. Next, C87A A97U: at most -4.2; C87U C108G U145G: at most -4.2.

Regarding C93U U146G, the “polymerase ribozyme fitness (log ratio)” value was -1.47.

Turning to C93U U146A, the “polymerase ribozyme fitness (log ratio)” value is -1.46. Next, G94U U151A: at most -4.2. Next, C87U A120U C123G: -1.06; C93A C99G: -3.88.

As for C93G G128U U146C, the “polymerase ribozyme fitness (log ratio)” value was at most -4.2.

In the case of G94C A106C C116U, the “polymerase ribozyme fitness (log ratio)” value is -3.12. As to A91C A113G, the “polymerase ribozyme fitness (log ratio)” value is -4.15. Next, C87A C103U C108A A110C C132A: at most -4.2. Next, C87U A89U: -1.2; C93U C123U U127C U135C: at most -4.2. Next, G92C U101G C131A: -3.96; C87A C93G C108G: at most -4.2; A91G C108U C116G G152A: -3.48. Consider C93U C125U, for which the “polymerase ribozyme fitness (log ratio)” value is -1.43. Next, A91U A98G U102G C105U: at most -4.2; C87A U101C: -4; G94U C116G: -0.502. Next, C93G C125G A150U: -4.06; G94C U151A: -3.85.

Consider C93U G133U, for which the “polymerase ribozyme fitness (log ratio)” value is -3.7.

For G94U G140U, the “polymerase ribozyme fitness (log ratio)” value was -3.84. For the variant G92U A115C, the “polymerase ribozyme fitness (log ratio)” value was -2.23. Next, C93A A150C: -3.74; G88U A97U U102G G117U U139G: at most -4.2; C87A C103A C114U: at most -4.2. Next, C87U C93U: -2.9; C87A C125U: -4.14; C87A A97G A142C: at most -4.2. Next, C93A A119G A120U: -2.53. In the case of C93G C108G C116G G133C, the “polymerase ribozyme fitness (log ratio)” value is -3.85.

Take G88C G126C: the “polymerase ribozyme fitness (log ratio)” value is at most -4.2. With G94U U102C, the “polymerase ribozyme fitness (log ratio)” value is -2.06.

For the variant C93A U102A A137C, the “polymerase ribozyme fitness (log ratio)” value was at most -4.2. Next, G88A C96A C103U: at most -4.2; C87U C99G: -1.97; A91U U139A G140C G143C: at most -4.2. Next, C93G A98C G143C: -4.05; C87U A122U: -0.5. For the variant A91U U111C, the “polymerase ribozyme fitness (log ratio)” value was at most -4.2. Next, C87U C116A G117C C118G: -1.82; G92A C116U C125U U134C: at most -4.2; G88A C116U: -4.05. Next, A91C A98G A122U U144C A147U A150C: at most -4.2. Next, C93U C95G A113G A137U A138U: at most -4.2; C93G A119U: -3.51. In the case of G92C G141C, the “polymerase ribozyme fitness (log ratio)” value is -0.623.

As for G92C U135C, the “polymerase ribozyme fitness (log ratio)” value is -2.88. Next, G92C U135G: -3.12; G94C A97U G136U: -3.38; A89U A107U G133A A142G: at most -4.2. For the variant C93U C116U A122U A150C, the “polymerase ribozyme fitness (log ratio)” value is -3.57. Next, C87G U90C: -4.07; A91U A106C C125A: at most -4.2; G94C C105G C116A: -2.89. Next, A91G G152A: -3.71. Next, C93U A119U G141A: -0.528; C95U C99A: -0.15; G88C G141C: -3.84. Consider A91U C93A A122U G143C, for which the “polymerase ribozyme fitness (log ratio)” value was at most -4.2. Next, C87U U144G: -0.986; C93G U144A: -2.68; G94C G133A: -4.02.

For the variant A91C U102G A138C, the “polymerase ribozyme fitness (log ratio)” value was at most -4.2. Next, C93A A115C: -3.22.

C87U G141C: the “polymerase ribozyme fitness (log ratio)” value is -1.72. Next, C87U G141A: -0.85; G86U G92C A98G A150U: -2.26; G88U C108G C118U A120U: at most -4.2. Next, U90C G126U: -3.66; G94A G136C: -3.98. Next, A91G C123G: -2.82; A91G C123U: -2.7; G92A C96A C103G C105U A107G A119G C125U C149A: at most -4.2. As for U90C C96U, the “polymerase ribozyme fitness (log ratio)” value is -3.69.

On to G92C A122C A150G, for which the “polymerase ribozyme fitness (log ratio)” value is -2.28.

Consider G94A C95G G133A U134G A137U, for which the “polymerase ribozyme fitness (log ratio)” value was -4.11. Next, G88U C105U: -3.83; G94C G128U: -3.18; C87U U90C: -3.33. Next, C87A G117C U146C: at most -4.2. Next, G86U G124A U148A: -3.78; G94A C131U: 0.309; G88U C95G C125U: at most -4.2. With A89U A122U, the “polymerase ribozyme fitness (log ratio)” value was -0.615.

As to C95U A97U C99U G133U A150G, the “polymerase ribozyme fitness (log ratio)” value was at most -4.2. Next, A91C A115G U146A: at most -4.2; A91U U145G: at most -4.2; G88U U127C: -4.15.

As to G94C A106G, the “polymerase ribozyme fitness (log ratio)” value is -1.31. Take A91G C118G: the “polymerase ribozyme fitness (log ratio)” value is -3.49. Next, A91G C118U: -3.15; A91G G140A: -4.12. Next, G92U A147C: -0.377; G88A U101G U102G A138U U139G: at most -4.2; C93A G143A: -2.78.

Turning to C87A A107G A115U U135C A142C, the “polymerase ribozyme fitness (log ratio)” value was at most -4.2.

With G92C G94A, the “polymerase ribozyme fitness (log ratio)” value is -2.95. Next, C87U C118U: -0.642; C93G A122U: -2.98.

Regarding A89G U134C, the “polymerase ribozyme fitness (log ratio)” value is -0.372. Next, U90C U102C A107U: at most -4.2; A91C A106G: at most -4.2. A89U C95G: the “polymerase ribozyme fitness (log ratio)” value is -1.9. Next, C93U C116U G141A: -0.0845; U90A A107G: at most -4.2. Take G94U C95A G152A: the “polymerase ribozyme fitness (log ratio)” value was -3.85.

For the variant C93A G141A, the “polymerase ribozyme fitness (log ratio)” value was -1.74. Next, G88U C95G: -3.65. Next, C87U C118U U135G: at most -4.2; G94U A147G: -1.51; G88A: -3.75. Next, G88C: -4.19; G88U: -3.89; G86U G100A C131U: at most -4.2. In the case of G94U C108U, the “polymerase ribozyme fitness (log ratio)” value was -3.54. Next, C93U G128C: -3.31; C93U G128U: -3.6.

C93G A98U C114A: the “polymerase ribozyme fitness (log ratio)” value is -3.85. Next, C87G G141U: -3.61; C93G G94U C108G: at most -4.2. Next, C87G A97U G117C: at most -4.2.

For the variant G94U A98U C99G A147G, the “polymerase ribozyme fitness (log ratio)” value was -3.16. As for G86U C123G, the “polymerase ribozyme fitness (log ratio)” value is -1.55.

For C93G C114U, the “polymerase ribozyme fitness (log ratio)” value is -3.97. Next, C87U A89C U139G: -2.56; G92C A98U G143A: -1.77; C93U G152A: -3.11. Next, C93U G152U: -3.49. Next, G94C A137C C149U: -3.76; G92A A106G: -2.36.

Consider C87G A107G, for which the “polymerase ribozyme fitness (log ratio)” value was at most -4.2. Regarding A91G A142C, the “polymerase ribozyme fitness (log ratio)” value is -3.5. Next, A91G G133A G141U G143U: at most -4.2.

Take A91G C105U C131A: the “polymerase ribozyme fitness (log ratio)” value is -3.83. Next, C87U C103G C116U: -1.35; A89G A110U U151A: -3.58; C93U G143U: -3.38.

Regarding A89U C96U A138G U146G, the “polymerase ribozyme fitness (log ratio)” value is at most -4.2. Consider C93A C116A G126A G141C, for which the “polymerase ribozyme fitness (log ratio)” value was at most -4.2.
